# Earlier results as cited in US20240173301A1, “2-IMINOBIOTIN FOR USE IN THE TREATMENT OF STROKE” (NEUROPHYXIA B.V., priority 2021, published 2024).
# B1: Alteplase (protein, UniProt P00750 36-562, looked up)
# Tissue-type plasminogen …: SYQVICRDEKTQMIYQQHQSWLRPVLRSNRVEYCWCNSGRAQCHSVPVKSCSEPRCFNGGTCQQALYFSDFVCQCPEGFAGKCCEIDTRATCYEDQGISYRGTWSTAESGAECTNWNSSALAQKPYSGRRPDAIRLGLGNHNYCRNPDRDSKPWCYVFKAGKYSSEFCSTPACSEGNSDCYFGNGSAYRGTHSLTESGASCLPWNSMILIGKVYTAQNPSAQALGLGKHNYCRNPDGDAKPWCHVLKNRRLTWEYCDVPSCSTCGLRQYSQPQFRIKGGLFADIASHPWQAAIFAKHRRSPGERFLCGGILISSCWILSAAHCFQERFPPHHLTVILGRTYRVVPGEEEQKFEVEKYIVHKEFDDDTYDNDIALLQLKSDSSRCAQESSVVRTVCLPPADLQLPDWTECELSGYGKHEALSPFYSERLKEAHVRLYPSSRCTSQHLLNRTVTDNMLCAGDTRSGGPQANLHDACQGDSGGPLVCLNDGRMTLVGIISWGLGCGQKDVPGVYTKVTNYLDWIRDNMRP
# notes: fibrinolytic drug
# Conditions: acute ischemic stroke, intravenous thrombolysis
molecule,measurement,value
B1,risk of a poor outcome,reduced the risk of a poor outcome
